Numbering of substitutions follows the chain as printed. Names may count otherwise. Values belong to the binder of their own block, whether it stands above or below them.
Assays:
[1] = biological target: T1, recombinant TFPI of the FXa restoring assay (human, mouse or rat; species not stated for Tables 9 and 10); experiment: cell-based or functional assay
[2] = biological target: T2, human TFPI (tissue factor pathway inhibitor) (human, UniProt P10646 29-304, limits assumed); experiment: competitive ELISA
T2 construct: bought protein, coated on ELISA plates or amine-coupled to a CM5 chip; also called hTFPI
T2 sequence (looked up): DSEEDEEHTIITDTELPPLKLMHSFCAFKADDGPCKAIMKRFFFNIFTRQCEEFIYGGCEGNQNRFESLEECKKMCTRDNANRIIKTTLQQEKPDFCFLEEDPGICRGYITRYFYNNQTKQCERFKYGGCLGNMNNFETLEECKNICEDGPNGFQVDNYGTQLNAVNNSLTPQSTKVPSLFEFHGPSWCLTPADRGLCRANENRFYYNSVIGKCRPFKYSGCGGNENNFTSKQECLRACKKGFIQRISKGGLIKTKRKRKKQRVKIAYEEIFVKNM
Protocol: Briefly, MTP plates (either Mesoscale Discovery, L21XA-4 or Nunc maxisorp black, 460518) were coated with 0.04-2 lug/m1 either human or mouse TFPI diluted in phosphate buffered saline (PBS) or in coating buffer (Candor Bioscience GmbH, 121500), respectively and incubated over night at 4° C. After washing, plates were blocked with 3% bovine serum albumin (Sigma, A4503) in PBST for 1 hour at room temperature and the washing step was repeated. For binding of the antibodies 10-25 µl of culturing supernatants normalized to their respective antibody expression level (if not otherwise indicated) were added to the plates for 1 hour at RT followed by washing with PBST. Bound wild-type and variants were then either detected by an epitope tag specific antibody or a competition step was included. For competition, 50-300 nM competitor or free antigen was added and incubated for 20 minutes to 24 hours at room temperature. […] For signal detection in maxisorp plates 10 [tM amplex red substrate (Invitrogen, A12222) was added and incubated for 10 to 30 minutes at room temperature in the dark followed by fluorescence measurement. For the detection in MSD plates MSD read buffer T was diluted to 2× in H2O (Mesoscale Discovery, R92TC-1), added to the plates and the electrochemiluminiscence signal was detected at 620 nm using the Mesoscale Discovery Sector Imager 6000. […]

[3] = biological target: T1, recombinant TFPI of the FXa restoring …; experiment: cell-based or functional assay; remark: listed apart in the source

B1: 4B7 wild-type Fab (Fab, V domains shown)
VH: QVQLQQSGPGLVKPSQTLSLTCAISGDSVSSNSAAWSWIRQSPGRGLEWLGIIYKRSKWYNDYAVSVKSRITINPDTSKNQFSLQLNSVTPEDTAVYYCARWHSDKHWGFDYWGQGTLVTVSS
VL: DIVMTQSPLSLPVTPGEPASISCRSSQSLVFSDGNTYLNWYLQKPGQSPQLLIYKGSNRASGVPDRFSGSGSGTDFTLKISRVEAEDVGVYYCQQYDSYPLTFGQGTKVEIKR
IC 50, FXa restoring assay [1]: 1.46 µg/mL
Improvement of IC50 vs 4B7wt [1]: 1 fold

B4: 2A8 wild-type Fab (Fab, V domains shown)
VH: QVQLVESGGGLVQPGGSLRLSCAASGFTFRSYGMSWVRQAPGKGLEWVSSIRGSSSSTYYADSVKGRFTISRDNSKNTLYLQMNSLRAEDTAVYYCARKYRYWFDYWGQGTLVTVSS
VL: DIELTQPPSVSVAPGQTARISCSGDNLRNYYAHWYQQKPGQAPVVVIYYDNNRPSGIPERFSGSNSGNTATLTISGTQAEDEADYYCQSWDDGVPVFGGGTKLTVLG
IC 50, FXa restoring assay [1]: 0.7 µg/mL
Improvement of IC50 vs 2A8wt [1]: 1 fold
EC50, FXa restoring assay [3]: 7910 pM
Improvement of EC50 vs 2A8 wt [3]: 1 fold

B6: 2A8 HC I51E (Fab, V domains shown)
VH: B4 VH with I51E
VL: B4 VL
IC 50, FXa restoring assay [1]: 0.76 µg/mL
Improvement of IC50 vs 2A8wt [1]: 0.9 fold

B8: 2A8 HC S54F (Fab, V domains shown)
VH: B4 VH with S54F
VL: B4 VL
IC 50, FXa restoring assay [1]: 0.35 µg/mL
Improvement of IC50 vs 2A8wt [1]: 2 fold

B9: 2A8 HC K99L (Fab, V domains shown)
VH: B4 VH with K99L
VL: B4 VL
IC 50, FXa restoring assay [1]: 0.181 µg/mL
Improvement of IC50 vs 2A8wt [1]: 3.9 fold
EC50, FXa restoring assay [3]: 1000 pM
Improvement of EC50 vs 2A8 wt [3]: 7.9 fold

B10: 2A8 HC S31V (Fab, V domains shown)
VH: B4 VH with S31V
VL: B4 VL
IC 50, FXa restoring assay [1]: 0.201 µg/mL
Improvement of IC50 vs 2A8wt [1]: 3.5 fold

B15: 2A8 HC S31P (Fab, V domains shown)
VH: B4 VH with S31P
VL: B4 VL
IC 50, FXa restoring assay [1]: 0.33 µg/mL
Improvement of IC50 vs 2A8wt [1]: 1.7 fold

B16: 2A8 HC K99V (Fab, V domains shown)
VH: B4 VH with K99V
VL: B4 VL
IC 50, FXa restoring assay [1]: 0.39 µg/mL
Improvement of IC50 vs 2A8wt [1]: 1.6 fold

B18: 2A8 LC D91K (Fab, V domains shown)
VH: B4 VH
VL: B4 VL with D91K
IC 50, FXa restoring assay [1]: 0.34 µg/mL
Improvement of IC50 vs 2A8wt [1]: 1.9 fold

B19: 2A8 HC S35D (Fab, V domains shown)
VH: B4 VH with S35D
VL: B4 VL
IC 50, FXa restoring assay [1]: 0.55 µg/mL
Improvement of IC50 vs 2A8wt [1]: 1.1 fold

The next lines start with the values.

IC 50, FXa restoring assay [1]: 0.058 µg/mL
Improvement of IC50 vs 4B7wt [1]: 25 fold
B2: 4B7 HC D62R (Fab, V domains shown)
VH: B1 VH with D62R
VL: B1 VL

variant/wild-type [2]: 3.7 ratio
B3: 4B7 HC H107M LC F31I (Fab, V domains shown)
VH: B1 VH with H107M
VL: B1 VL with F31I
notes: Fab; tags as m115; also called HC H107M LC F311 (so in the source)

EC50, FXa restoring assay [3]: 1080 pM
Improvement of EC50 vs 2A8 wt [3]: 7.3 fold
B5: 2A8-216 (Fab, V domains shown)
VH: B4 VH with S31V, I51D, S55R, K99V
VL: B4 VL with Y48F, D91L, V96W

EC50, FXa restoring assay [3]: 500 pM
Improvement of EC50 vs 2A8 wt [3]: 15.8 fold
B7: 2A8-143 (Fab, V domains shown)
VH: B4 VH with S35D, S55R, K99L
VL: B4 VL with Y48F, N51V, D91L, V96W

EC50, FXa restoring assay [3]: 810 pM
Improvement of EC50 vs 2A8 wt [3]: 9.7 fold
B11: 2A8-200 (Fab, V domains shown)
VH: B4 VH with S35D, S55R, K99L
VL: B4 VL with Y48F, N51V, D91W

IC 50, FXa restoring assay [1]: 0.23 µg/mL
Improvement of IC50 vs 2A8wt [1]: 3 fold
B12: 2A8 LC D91W (Fab, V domains shown)
VH: B4 VH
VL: B4 VL with D91W

EC50, FXa restoring assay [3]: 440 pM
Improvement of EC50 vs 2A8 wt [3]: 18.2 fold
B13: 2A8-127 (Fab, V domains shown)
VH: B4 VH with S35D, K99L
VL: B4 VL with Y48F, N51V, G56D, V96W

IC 50, FXa restoring assay [1]: 0.37 µg/mL
Improvement of IC50 vs 2A8wt [1]: 1.7 fold
B14: 2A8 LC D91L (Fab, V domains shown)
VH: B4 VH
VL: B4 VL with D91L

IC 50, FXa restoring assay [1]: 0.34 µg/mL
Improvement of IC50 vs 2A8wt [1]: 1.9 fold
B17: 2A8 LC Y48F (Fab, V domains shown)
VH: B4 VH
VL: B4 VL with Y48F

Source: patent publication US20120108796A1 (Bayer, published 2012)
